Test results reported in publication PMC9242541, “Importance of Rare DPYD Genetic Polymorphisms for 5-Fluorouracil Therapy in the Japanese Population” (Frontiers in Pharmacology, 2022).
Where a chain is given by its changes, count along the chain named.

B1: DPD variant I245F (enzyme, human, UniProt Q12882 4-1025, looked up)
chain: VLSKDSADIESILALNPRTQTHATLCSTSAKKLDKKHWKRNPDKNCFNCEKLENNFDDIKHTTLGERGALREAMRCLKCADAPCQKSCPTNLDIKSFITSIANKNYYGAAKMIFSDNPLGLTCGMVCPTSDLCVGGCNLYATEEGPINIGGLQQFATEVFKAMSIPQIRNPSLPPPEKMSEAYSAKIALFGAGPASISCASFLARLGYSDITIFEKQEYVGGLSTSEIPQFRLPYDVVNFEFELMKDLGVKIICGKSLSVNEMTLSTLKEKGYKAAFIGIGLPEPNKDAIFQGLTQDQGFYTSKDFLPLVAKGSKAGMCACHSPLPSIRGVVIVLGAGDTAFDCATSALRCGARRVFIVFRKGFVNIRAVPEEMELAKEEKCEFLPFLSPRKVIVKGGRIVAMQFVRTEQDETGKWNEDEDQMVHLKADVVISAFGSVLSDPKVKEALSPIKFNRWGLPEVDPETMQTSEAWVFAGGDVVGLANTTVESVNDGKQASWYIHKYVQSQYGASVSAKPELPLFYTPIDLVDISVEMAGLKFINPFGLASATPATSTSMIRRAFEAGWGFALTKTFSLDKDIVTNVSPRIIRGTTSGPMYGPGQSSFLNIELISEKTAAYWCQSVTELKADFPDNIVIASIMCSYNKNDWTELAKKSEDSGADALELNLSCPHGMGERGMGLACGQDPELVRNICRWVRQAVQIPFFAKLTPNVTDIVSIARAAKEGGANGVTATNTVSGLMGLKSDGTPWPAVGIAKRTTYGGVSGTAIRPIALRAVTSIARALPGFPILATGGIDSAESGLQFLHSGASVLQVCSAIQNQDFTVIEDYCTGLKALLYLKSIEELQDWDGQSPATVSHQKGKPVPRIAELMDKKLPSFGPYLEQRKKIIAENKIRLKEQNVAFSPLKRNCFIPKRPIPTIKDVIGKALQYLGTFGELSNVEQVVAMIDEEMCINCGKCYMTCNDSGYQAIQFDPETHLPTITDTCTGCTLCLSVCPIVDCIKMVSRTTPYEPKRGVPLSVNPVC
notes: dihydropyrimidine dehydrogenase (DPD), human, DPYD cDNA with a variant found in Japanese individuals; made by site-directed mutagenesis of the wild-type construct; also called 733A > T; source: 293FT cells, transfected (pcDNA3.4), soluble fraction
B2: DPD variant R886H (enzyme, human, UniProt Q12882 4-1025, looked up)
chain: B1 chain with F242I, R883H
notes: dihydropyrimidine dehydrogenase (DPD), human, DPYD cDNA with a variant found in Japanese individuals; made by site-directed mutagenesis of the wild-type construct; also called 2657G > A (*9B); source: 293FT cells, transfected (pcDNA3.4), soluble fraction
B3: DPD variant C354Y (enzyme, human, UniProt Q12882 4-1025, looked up)
chain: B1 chain with F242I, C351Y
notes: dihydropyrimidine dehydrogenase (DPD), human, DPYD cDNA with a variant found in Japanese individuals; made by site-directed mutagenesis of the wild-type construct; also called 1061G > A; source: 293FT cells, transfected (pcDNA3.4), soluble fraction
B4: DPD variant R592W (enzyme, human, UniProt Q12882 4-1025, looked up)
chain: B1 chain with F242I, R589W
notes: dihydropyrimidine dehydrogenase (DPD), human, DPYD cDNA with a variant found in Japanese individuals; made by site-directed mutagenesis of the wild-type construct; also called 1774C > T; source: 293FT cells, transfected (pcDNA3.4), soluble fraction
B5: DPD variant D291N (enzyme, human, UniProt Q12882 4-1025, looked up)
chain: B1 chain with F242I, D288N
notes: dihydropyrimidine dehydrogenase (DPD), human, DPYD cDNA with a variant found in Japanese individuals; made by site-directed mutagenesis of the wild-type construct; also called 871G > A; source: 293FT cells, transfected (pcDNA3.4), soluble fraction
B6: DPD variant V738L (enzyme, human, UniProt Q12882 4-1025, looked up)
chain: B1 chain with F242I, V735L
notes: dihydropyrimidine dehydrogenase (DPD), human, DPYD cDNA with a variant found in Japanese individuals; made by site-directed mutagenesis of the wild-type construct; also called 2212G > C; source: 293FT cells, transfected (pcDNA3.4), soluble fraction
B7: DPD variant I543V (enzyme, human, UniProt Q12882 4-1025, looked up)
chain: B1 chain with F242I, I540V
notes: dihydropyrimidine dehydrogenase (DPD), human, DPYD cDNA with a variant found in Japanese individuals; made by site-directed mutagenesis of the wild-type construct; also called 1627A > G (*5); source: 293FT cells, transfected (pcDNA3.4), soluble fraction
B8: DPD variant F438V (enzyme, human, UniProt Q12882 4-1025, looked up)
chain: B1 chain with F242I, F435V
notes: dihydropyrimidine dehydrogenase (DPD), human, DPYD cDNA with a variant found in Japanese individuals; made by site-directed mutagenesis of the wild-type construct; also called 1312T > G; source: 293FT cells, transfected (pcDNA3.4), soluble fraction
B9: DPD variant V732I (enzyme, human, UniProt Q12882 4-1025, looked up)
chain: B1 chain with F242I, V729I
notes: dihydropyrimidine dehydrogenase (DPD), human, DPYD cDNA with a variant found in Japanese individuals; made by site-directed mutagenesis of the wild-type construct; also called 2194G > A (*6); source: 293FT cells, transfected (pcDNA3.4), soluble fraction
B10: DPD variant V313L (enzyme, human, UniProt Q12882 4-1025, looked up)
chain: B1 chain with F242I, V310L
notes: dihydropyrimidine dehydrogenase (DPD), human, DPYD cDNA with a variant found in Japanese individuals; made by site-directed mutagenesis of the wild-type construct; also called 937G > T; source: 293FT cells, transfected (pcDNA3.4), soluble fraction
B11: DPD variant N893S (enzyme, human, UniProt Q12882 4-1025, looked up)
chain: B1 chain with F242I, N890S
notes: dihydropyrimidine dehydrogenase (DPD), human, DPYD cDNA with a variant found in Japanese individuals; made by site-directed mutagenesis of the wild-type construct; also called 2678A > G; source: 293FT cells, transfected (pcDNA3.4), soluble fraction
B12: DPD variant T768K (enzyme, human, UniProt Q12882 4-1025, looked up)
chain: B1 chain with F242I, T765K
notes: dihydropyrimidine dehydrogenase (DPD), human, DPYD cDNA with a variant found in Japanese individuals; made by site-directed mutagenesis of the wild-type construct; also called 2303C > A; source: 293FT cells, transfected (pcDNA3.4), soluble fraction
B13: DPD variant T990I (enzyme, human, UniProt Q12882 4-1025, looked up)
chain: B1 chain with F242I, T987I
notes: dihydropyrimidine dehydrogenase (DPD), human, DPYD cDNA with a variant found in Japanese individuals; made by site-directed mutagenesis of the wild-type construct; also called 2969C > T; source: 293FT cells, transfected (pcDNA3.4), soluble fraction
B14: DPD variant A191V (enzyme, human, UniProt Q12882 4-1025, looked up)
chain: B1 chain with A188V, F242I
notes: dihydropyrimidine dehydrogenase (DPD), human, DPYD cDNA with a variant found in Japanese individuals; made by site-directed mutagenesis of the wild-type construct; also called 572C > T; source: 293FT cells, transfected (pcDNA3.4), soluble fraction
B15: DPD variant S175L (enzyme, human, UniProt Q12882 4-1025, looked up)
chain: B1 chain with S172L, F242I
notes: dihydropyrimidine dehydrogenase (DPD), human, DPYD cDNA with a variant found in Japanese individuals; made by site-directed mutagenesis of the wild-type construct; also called 524C > T; source: 293FT cells, transfected (pcDNA3.4), soluble fraction
B16: DPD variant T298M (enzyme, human, UniProt Q12882 4-1025, looked up)
chain: B1 chain with F242I, T295M
notes: dihydropyrimidine dehydrogenase (DPD), human, DPYD cDNA with a variant found in Japanese individuals; made by site-directed mutagenesis of the wild-type construct; also called 893C > T; source: 293FT cells, transfected (pcDNA3.4), soluble fraction
B17: DPD variant H25R (enzyme, human, UniProt Q12882 4-1025, looked up)
chain: B1 chain with H22R, F242I
notes: dihydropyrimidine dehydrogenase (DPD), human, DPYD cDNA with a variant found in Japanese individuals; made by site-directed mutagenesis of the wild-type construct; also called 74A > G; source: 293FT cells, transfected (pcDNA3.4), soluble fraction
B18: DPD variant Y109N (enzyme, human, UniProt Q12882 4-1025, looked up)
chain: B1 chain with Y106N, F242I
notes: dihydropyrimidine dehydrogenase (DPD), human, DPYD cDNA with a variant found in Japanese individuals; made by site-directed mutagenesis of the wild-type construct; also called 325T > A; source: 293FT cells, transfected (pcDNA3.4), soluble fraction
B19: DPD variant I528V (enzyme, human, UniProt Q12882 4-1025, looked up)
chain: B1 chain with F242I, I525V
notes: dihydropyrimidine dehydrogenase (DPD), human, DPYD cDNA with a variant found in Japanese individuals; made by site-directed mutagenesis of the wild-type construct; also called 1582A > G; source: 293FT cells, transfected (pcDNA3.4), soluble fraction
B20: DPD variant V515I (enzyme, human, UniProt Q12882 4-1025, looked up)
chain: B1 chain with F242I, V512I
notes: dihydropyrimidine dehydrogenase (DPD), human, DPYD cDNA with a variant found in Japanese individuals; made by site-directed mutagenesis of the wild-type construct; also called 1543G > A; source: 293FT cells, transfected (pcDNA3.4), soluble fraction
B21: DPD variant Y304H (enzyme, human, UniProt Q12882 4-1025, looked up)
chain: B1 chain with F242I, Y301H
notes: dihydropyrimidine dehydrogenase (DPD), human, DPYD cDNA with a variant found in Japanese individuals; made by site-directed mutagenesis of the wild-type construct; also called 910T > C; source: 293FT cells, transfected (pcDNA3.4), soluble fraction
B22: DPD variant R353C (enzyme, human, UniProt Q12882 4-1025, looked up)
chain: B1 chain with F242I, R350C
notes: dihydropyrimidine dehydrogenase (DPD), human, DPYD cDNA with a variant found in Japanese individuals; made by site-directed mutagenesis of the wild-type construct; expression after SDS-PAGE was below the lower limit of quantification; also called 1057C > T; source: 293FT cells, transfected (pcDNA3.4), soluble fraction

Biological target: the molecule itself
Assay: native gel or EMSA; blue native PAGE (Tris-glycine buffer, 5%-20% polyacrylamide gels), 9 μg of the soluble fraction of transfected 293FT cells per lane, immunoblot with polyclonal anti-human DPD antibody; monomer to dimer
In the case of B1, the “stoichiometry N” value is reported as 2.
With B2 the “stoichiometry N” value was 2.
For B3, the “stoichiometry N” value was 2.
In the case of B4, the “stoichiometry N” value is reported as 2.
B5 was tested, and the “stoichiometry N” value was 2.
In the case of B6, the “stoichiometry N” value is reported as 2.
In the case of B7, the “stoichiometry N” value is reported as 2.
With B8 the “stoichiometry N” value was 2.
With B9 the “stoichiometry N” value was 2.
With B10 the “stoichiometry N” value was 2.
With B11 the “stoichiometry N” value was 2.
For B12, the “stoichiometry N” value was 2.
B13 was tested, and the “stoichiometry N” value was 2.
In the case of B14, the “stoichiometry N” value is reported as 2.
For B15, the “stoichiometry N” value was 2.
For B16, the “stoichiometry N” value was 2.
For B17, the “stoichiometry N” value was 2.
With B18 the “stoichiometry N” value was 2.
For B19, the “stoichiometry N” value was 2.
With B20 the “stoichiometry N” value was 2.
B21 was tested, and the “stoichiometry N” value was 2.
For B22, the “stoichiometry N” value was 2.
